Assay results: patent US20180215833A1 (published 2018)
Each block holds one binder with its values, some of them ahead of it.

How the values were obtained:
[1] = target: human c-Met on cells (MKN-45, A549, HPAF, BxPC3, NCI-H441) (human, UniProt P08581 25-1390); test: cell-based or functional assay
[2] = target: LS2 (aa1-199) (Llama glama; human) (UniProt P08581); test: ELISA, mAb immobilised, c-Met chimera titrated (EC50 of the chimera)
[3] = target: LS3 (aa1-287) (Llama glama; human) (UniProt P08581); test: as above
[4] = target: LS4 (aa1-348) (Llama glama; human) (UniProt P08581); test: as above
[5] = target: LS5 (aa1-448) (Llama glama; human) (UniProt P08581); test: as above
[6] = target: Ll10 (aa608-909) (human; Llama glama); test: as above
[7] = target: Ll11 (aa634-909) (human; Llama glama); test: as above
[8] = target: Ll8 (aa540-909) (human; Llama glama); test: as above
[9] = target: Ll9 (aa572-909) (human; Llama glama); test: as above
[10] = target: T1, llama c-Met ECD (aa 25-932), His tag (Llama glama); test: ELISA, 200 ng immobilised c-Met protein
T1 construct: also called Llama glama c-Met
T1 chain: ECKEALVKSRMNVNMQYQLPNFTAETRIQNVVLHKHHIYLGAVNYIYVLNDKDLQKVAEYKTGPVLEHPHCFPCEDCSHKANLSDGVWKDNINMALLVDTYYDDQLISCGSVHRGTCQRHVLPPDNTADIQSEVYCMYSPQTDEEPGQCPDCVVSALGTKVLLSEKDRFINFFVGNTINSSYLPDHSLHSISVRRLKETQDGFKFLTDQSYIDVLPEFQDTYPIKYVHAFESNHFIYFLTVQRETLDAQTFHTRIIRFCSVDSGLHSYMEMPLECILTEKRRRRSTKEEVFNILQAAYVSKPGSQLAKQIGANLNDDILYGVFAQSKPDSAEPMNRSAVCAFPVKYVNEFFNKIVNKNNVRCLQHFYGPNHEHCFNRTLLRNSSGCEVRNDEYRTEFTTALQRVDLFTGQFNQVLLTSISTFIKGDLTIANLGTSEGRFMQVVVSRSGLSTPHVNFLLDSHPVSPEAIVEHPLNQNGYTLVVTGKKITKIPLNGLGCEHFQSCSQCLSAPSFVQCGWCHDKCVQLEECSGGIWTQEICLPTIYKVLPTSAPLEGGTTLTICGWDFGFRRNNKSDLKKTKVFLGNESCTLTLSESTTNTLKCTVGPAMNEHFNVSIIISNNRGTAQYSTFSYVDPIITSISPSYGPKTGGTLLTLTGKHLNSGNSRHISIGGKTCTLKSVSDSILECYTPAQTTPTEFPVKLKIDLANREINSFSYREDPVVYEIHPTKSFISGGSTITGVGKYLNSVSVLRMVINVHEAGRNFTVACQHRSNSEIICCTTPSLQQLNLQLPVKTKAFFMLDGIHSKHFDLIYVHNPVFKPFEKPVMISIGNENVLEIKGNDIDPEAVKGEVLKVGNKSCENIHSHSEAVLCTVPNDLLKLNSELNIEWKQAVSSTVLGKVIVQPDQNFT

[11] = target: T2, human/llama-IPT chimeric c-Met ECD (human; Llama glama, UniProt P08581 25-932); test: ELISA, 200 ng immobilised c-Met protein, mAb titrated
T2 construct: ranges stand under form; also called human/llama IPT1-4; construct with the human SEMA-PSI
T2 chain: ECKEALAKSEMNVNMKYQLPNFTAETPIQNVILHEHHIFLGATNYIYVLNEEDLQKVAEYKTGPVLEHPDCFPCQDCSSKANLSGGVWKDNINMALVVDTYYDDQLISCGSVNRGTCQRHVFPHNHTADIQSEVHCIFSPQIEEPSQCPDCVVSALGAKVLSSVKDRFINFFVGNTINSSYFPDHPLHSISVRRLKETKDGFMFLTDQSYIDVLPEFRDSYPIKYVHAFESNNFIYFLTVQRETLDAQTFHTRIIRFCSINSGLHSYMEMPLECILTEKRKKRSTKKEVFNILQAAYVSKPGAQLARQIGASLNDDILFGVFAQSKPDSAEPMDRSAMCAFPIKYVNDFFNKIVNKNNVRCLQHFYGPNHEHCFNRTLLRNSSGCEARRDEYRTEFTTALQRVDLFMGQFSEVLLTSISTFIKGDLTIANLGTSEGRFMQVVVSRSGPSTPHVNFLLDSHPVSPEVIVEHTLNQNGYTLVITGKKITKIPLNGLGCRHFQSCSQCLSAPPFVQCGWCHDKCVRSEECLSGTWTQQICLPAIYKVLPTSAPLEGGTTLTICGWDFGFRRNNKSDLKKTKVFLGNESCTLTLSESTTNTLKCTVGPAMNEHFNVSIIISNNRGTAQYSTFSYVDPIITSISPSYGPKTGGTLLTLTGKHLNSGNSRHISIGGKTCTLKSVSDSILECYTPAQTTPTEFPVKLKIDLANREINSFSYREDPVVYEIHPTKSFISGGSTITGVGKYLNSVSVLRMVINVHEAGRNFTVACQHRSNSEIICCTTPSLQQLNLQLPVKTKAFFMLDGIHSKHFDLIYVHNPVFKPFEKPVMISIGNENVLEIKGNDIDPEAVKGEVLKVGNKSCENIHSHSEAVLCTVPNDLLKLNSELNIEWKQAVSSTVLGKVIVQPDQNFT

[12] = target: LP6 (aa497-909) (human; Llama glama); test: ELISA, mAb immobilised, c-Met chimera titrated (EC50 of the chimera)
[13] = target: LP7* (aa523-909) (human; Llama glama); test: as above
LS1 (aa1-98) = target: T3, LS1 (aa1-98) (Llama glama; human, UniProt P08581 25-932); test: as above
T3 construct: Ranges count on mature human c-Met
T3 chain: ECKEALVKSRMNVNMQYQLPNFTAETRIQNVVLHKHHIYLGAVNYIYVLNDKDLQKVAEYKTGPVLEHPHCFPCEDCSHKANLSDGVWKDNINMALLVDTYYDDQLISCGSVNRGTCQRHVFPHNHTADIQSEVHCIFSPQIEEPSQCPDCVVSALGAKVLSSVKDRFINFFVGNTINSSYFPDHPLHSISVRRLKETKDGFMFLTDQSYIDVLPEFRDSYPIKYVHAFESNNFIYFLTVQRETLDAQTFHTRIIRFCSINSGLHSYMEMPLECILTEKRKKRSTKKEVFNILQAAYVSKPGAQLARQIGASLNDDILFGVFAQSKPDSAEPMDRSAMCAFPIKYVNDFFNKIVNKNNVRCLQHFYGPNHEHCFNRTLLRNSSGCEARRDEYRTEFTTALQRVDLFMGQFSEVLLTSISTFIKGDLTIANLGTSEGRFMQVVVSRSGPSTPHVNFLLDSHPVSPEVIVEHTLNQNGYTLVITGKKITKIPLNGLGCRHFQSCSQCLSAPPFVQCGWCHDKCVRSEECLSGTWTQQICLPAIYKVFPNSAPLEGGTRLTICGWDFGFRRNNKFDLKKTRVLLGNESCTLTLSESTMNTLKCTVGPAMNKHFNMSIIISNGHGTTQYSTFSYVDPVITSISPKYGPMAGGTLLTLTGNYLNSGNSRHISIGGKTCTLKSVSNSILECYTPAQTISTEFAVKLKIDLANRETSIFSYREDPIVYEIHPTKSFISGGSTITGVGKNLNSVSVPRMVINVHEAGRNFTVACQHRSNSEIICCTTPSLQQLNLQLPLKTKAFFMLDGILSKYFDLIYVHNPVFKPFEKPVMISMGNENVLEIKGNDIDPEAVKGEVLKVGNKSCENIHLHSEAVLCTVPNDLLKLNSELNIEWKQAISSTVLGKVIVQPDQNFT
From the text: An ELISA was run to investigate the binding of the mAbs to the different chimeras.

- ADCC, specific lysis of MKN-45 cells, EC50 [1]: 0.0046 µg/mL
- antibody-induced proliferation of BxPC3 cells, percentage of the proliferation obtained with 75 ng/ml HGF [1]: < 20%
B4: 40B8 (antibody, V domains shown)
VH: EVQLVQPGAELRNPGASVKVSCKASGYTFTNYVIDWVRQAPGQGLEWMGRIDPENGGTRYAQKFQGRVTFTADTSTSTAYVELSNLRSEDTAVYYCARLEDYELAYDYWGQGTQVTVSS
VL: DIVMTQTPSSVTASAGEKVTINCKSSQSVLLSSNQKNYLAWYQQRLGQSPRLLIYWASTRESGVPDRFSGSGSTTDFTLTISSFQPEDAAVYYCQQGVSFPLTFGQGTKVELK

- ADCC, 51Cr release assay on NCI-H441 cells, EC50 [1]: 0.04 µg/mL
- ADCC, 51Cr release, lysis of NCI-H441 cells, IC50 [1]: 0.00013 µg/mL
B6: Potelligent 36C4 (antibody, V domains shown)
VH: QVQLVESGPGLVKPSQTLSLTCAVSGGSITTNYYYWSWIRQSPGKGLEWMGVIAYDGSTDYSPSLKSRTSISRDTSKNQFSLQLSSVTPEDTAVYYCARDVRVIATGWATANALDAWGQGTLVTVSS
VL: QSVLTQPPSVSGSPGKTVTISCAGTSSDVGYGNYVSWYQQLPGTAPKLLIFAVSYRASGIPDRFSGSKSGNTAFLTISGLQSEDEADYYCASYRSSNNAAVFGGGTHLTVL
modifications: defucosylated (produced in Potelligent CHO cells)

- binding result [10]: no binding
B8: 13E6 (antibody, V domains shown)
VH: QVQLQESGGDLVQPGGSLRLSCAASGFTFDDYVMNWVRQAPGKGLEWISAINWNGGSTYYAESMKGRFTISRDNAKNTLYLQMYSLQSDDTAVYYCVKDTVVSGNGYWGQGTQVTVSS
VL: QSVLTQPPSVSGTLGKTVTISCAGTSSDIGDYNYVSWYQQLPGTAPKLLIYDVNKRASGIPDRFSGSKSGNTASLSISGLQSEDEADYYCASYRSRNDYAFGGGTKLTVL
notes: also called mAb 13E6

Further lines, the binder ahead of its results:

B1: 38H10 (antibody, V domains shown)
VH: EVQLVQPGVELRNPGASVKVSCKASGYIFTMNSIDWVRQAPGQGLEWMGRIDPEDGGTKYAQKFQGRVTFTADTSTSTAYVELNSLRSEDTAVYYCARVDDYYLGYDYWGQGTQVTVSS
VL: EIVMTQSPSSVTASAGEKVTINCKSSQSVLWRSNQKNYLAWYQQRLGQSPRLLISWASIRESGVPDRFSGSGSTTDFTLTISSFQPEDAAVYYCQQGYSFPYTFGSGTRLEIK
- antibody-induced proliferation of BxPC3 cells, percentage of the proliferation obtained with 75 ng/ml HGF [1]: < 20%

B2: 48A2 (antibody, V domains shown)
VH: B1 VH
VL: DIVMTQTPTSVTASAGDKVTINCKSSQSVLFSSNQKNYLAWYQQRLGQSPRLLIYWASIRESGVPDRFSGSGSATDFTLTISNFQPEDAAVYYCQQGYSFPYSFGSGTRLEIR
- ADCC, specific lysis of MKN-45 cells, EC50 [1]: 0.0043 µg/mL
- EC50 [2]: 0.034 µg/mL
- EC50 [3]: 0.05 µg/mL
- EC50 [4]: 0.07 µg/mL
- EC50 [5]: 0.05 µg/mL
- EC50 [6]: > 0.04 µg/mL
- EC50 [7]: 0.042 µg/mL
- EC50 [8]: > 0.04 µg/mL
- EC50 [9]: > 0.04 µg/mL

B3: chimeric 224G11 (antibody, human IgG1, V domains shown)
VH: EVQLQQSGPELVKPGASVKISCKTSGYIFTAYTMHWVRQSLGESLDWIGGIKPNNGLANYNQKFKGKATLTVDKSSSTAYMDLRSLTSEDSAVYYCARSEITTEFDYWGQGTALTVSS
VL: DIVLTQSPASLAVSLGQRATISCRASESVDSYANSFMHWYQQKPGQPPKLLIYRASNLESGIPARFSGSGSRTDFTLTINPVEADDVATYYCQQSKEDPLTFGSGTKLEMK
- ADCC, specific lysis of MKN-45 cells, EC50 [1]: 0.0028 µg/mL

B5: 36C4 (antibody, V domains shown)
VH: B6 VH
VL: B6 VL
notes: also called mAb 36C4; SIMPLE antibody 36C4
- ADCC, specific lysis of MKN-45 cells, EC50 [1]: 0.005 µg/mL
- antibody-induced proliferation of BxPC3 cells, percentage of the proliferation obtained with 75 ng/ml HGF [1]: < 20%
- binding result [10]: no binding
- binding result [11]: binds
- EC50 [12]: 0.05 µg/mL
- EC50 [13]: 0.055 µg/mL
- EC50 [6]: 0.047 µg/mL
- EC50 [7]: 0.045 µg/mL
- EC50 [8]: 0.047 µg/mL
- EC50 [9]: 0.047 µg/mL
- EC50 (LS1 (aa1-98)): 0.068 µg/mL

B7: 36C4E (antibody, V domains shown)
VH: B6 VH
VL: B6 VL
- ADCC, 51Cr release assay on NCI-H441 cells, EC50 [1]: 0.26 µg/mL
